Experiments:
Assay in all cases: cell-based or functional assay
[1] = target: human KLB & human FGFR3c on L6 cells (human) (UniProt Q86Z14)
[2] = target: human KLB & human FGFR4 on L6 cells (human) (UniProt Q86Z14)
[3] = target: human FGFR1c on cells (human) (UniProt P11362)
[4] = target: human KLB&FGFR1c complex on cells (human) (UniProt Q86Z14)
Chain of human KLB&FGFR1c complex on cells (human) (Q86Z14 whole entry, chain 1 of 2): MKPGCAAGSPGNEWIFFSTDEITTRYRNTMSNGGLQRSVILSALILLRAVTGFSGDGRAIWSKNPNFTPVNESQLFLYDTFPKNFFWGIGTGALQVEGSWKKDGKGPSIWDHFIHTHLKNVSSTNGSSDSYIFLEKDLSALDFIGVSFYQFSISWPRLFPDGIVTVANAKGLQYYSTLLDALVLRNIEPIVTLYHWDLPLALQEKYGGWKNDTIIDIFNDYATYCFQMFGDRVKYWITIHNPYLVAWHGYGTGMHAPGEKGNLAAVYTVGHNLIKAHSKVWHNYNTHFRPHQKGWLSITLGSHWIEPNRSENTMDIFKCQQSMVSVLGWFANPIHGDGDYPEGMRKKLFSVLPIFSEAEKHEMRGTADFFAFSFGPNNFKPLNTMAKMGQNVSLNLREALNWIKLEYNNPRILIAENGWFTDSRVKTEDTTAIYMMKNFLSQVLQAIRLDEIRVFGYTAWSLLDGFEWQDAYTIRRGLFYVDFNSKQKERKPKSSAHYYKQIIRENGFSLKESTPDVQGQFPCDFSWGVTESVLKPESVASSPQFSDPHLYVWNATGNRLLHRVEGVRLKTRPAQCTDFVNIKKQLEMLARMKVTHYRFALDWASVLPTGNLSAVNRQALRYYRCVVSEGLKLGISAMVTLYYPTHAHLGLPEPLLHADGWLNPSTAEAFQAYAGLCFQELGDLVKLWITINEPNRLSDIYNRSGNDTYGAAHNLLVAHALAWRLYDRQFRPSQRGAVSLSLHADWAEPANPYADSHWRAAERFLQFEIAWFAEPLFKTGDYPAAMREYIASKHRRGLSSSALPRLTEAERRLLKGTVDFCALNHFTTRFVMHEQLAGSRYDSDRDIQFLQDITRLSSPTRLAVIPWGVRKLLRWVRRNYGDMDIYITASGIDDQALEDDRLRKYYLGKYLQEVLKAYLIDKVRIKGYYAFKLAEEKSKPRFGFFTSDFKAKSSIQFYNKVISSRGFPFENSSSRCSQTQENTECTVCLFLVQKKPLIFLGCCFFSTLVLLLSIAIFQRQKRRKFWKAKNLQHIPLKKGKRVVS
Chain of human KLB&FGFR1c complex on cells (human) (P11362 22-822, chain 2 of 2, further chain): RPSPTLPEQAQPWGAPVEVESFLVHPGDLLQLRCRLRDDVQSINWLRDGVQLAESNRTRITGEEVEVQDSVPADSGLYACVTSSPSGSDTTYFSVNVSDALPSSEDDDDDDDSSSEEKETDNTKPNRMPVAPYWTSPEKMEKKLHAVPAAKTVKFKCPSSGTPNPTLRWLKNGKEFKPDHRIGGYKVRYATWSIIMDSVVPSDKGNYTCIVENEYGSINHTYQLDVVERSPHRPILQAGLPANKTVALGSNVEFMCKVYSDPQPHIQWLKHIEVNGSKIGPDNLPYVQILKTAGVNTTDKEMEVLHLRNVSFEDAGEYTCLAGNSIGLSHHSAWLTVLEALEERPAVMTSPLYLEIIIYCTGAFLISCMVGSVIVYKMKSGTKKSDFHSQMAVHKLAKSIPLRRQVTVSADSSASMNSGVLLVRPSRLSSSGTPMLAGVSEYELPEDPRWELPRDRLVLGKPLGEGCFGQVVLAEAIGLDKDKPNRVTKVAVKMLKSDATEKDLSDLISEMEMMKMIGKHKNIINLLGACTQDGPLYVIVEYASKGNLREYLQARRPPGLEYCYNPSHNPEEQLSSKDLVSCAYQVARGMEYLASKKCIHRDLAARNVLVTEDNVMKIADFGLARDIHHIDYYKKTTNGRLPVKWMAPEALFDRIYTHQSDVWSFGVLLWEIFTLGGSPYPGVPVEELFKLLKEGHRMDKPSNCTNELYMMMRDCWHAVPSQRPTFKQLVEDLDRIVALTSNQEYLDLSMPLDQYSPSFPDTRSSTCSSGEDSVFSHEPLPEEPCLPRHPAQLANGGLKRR

Chain of human FGFR1c on cells (human) (P11362 22-822): as the sequence (P11362 22-822, chain 2 of 2, further chain) above
Chain of human KLB & human FGFR3c on L6 cells (human) (Q86Z14 whole entry, chain 1 of 2): as the sequence (Q86Z14 whole entry, chain 1 of 2) above
Chain of human KLB & human FGFR3c on L6 cells (human) (P22607 23-806, chain 2 of 2, further chain): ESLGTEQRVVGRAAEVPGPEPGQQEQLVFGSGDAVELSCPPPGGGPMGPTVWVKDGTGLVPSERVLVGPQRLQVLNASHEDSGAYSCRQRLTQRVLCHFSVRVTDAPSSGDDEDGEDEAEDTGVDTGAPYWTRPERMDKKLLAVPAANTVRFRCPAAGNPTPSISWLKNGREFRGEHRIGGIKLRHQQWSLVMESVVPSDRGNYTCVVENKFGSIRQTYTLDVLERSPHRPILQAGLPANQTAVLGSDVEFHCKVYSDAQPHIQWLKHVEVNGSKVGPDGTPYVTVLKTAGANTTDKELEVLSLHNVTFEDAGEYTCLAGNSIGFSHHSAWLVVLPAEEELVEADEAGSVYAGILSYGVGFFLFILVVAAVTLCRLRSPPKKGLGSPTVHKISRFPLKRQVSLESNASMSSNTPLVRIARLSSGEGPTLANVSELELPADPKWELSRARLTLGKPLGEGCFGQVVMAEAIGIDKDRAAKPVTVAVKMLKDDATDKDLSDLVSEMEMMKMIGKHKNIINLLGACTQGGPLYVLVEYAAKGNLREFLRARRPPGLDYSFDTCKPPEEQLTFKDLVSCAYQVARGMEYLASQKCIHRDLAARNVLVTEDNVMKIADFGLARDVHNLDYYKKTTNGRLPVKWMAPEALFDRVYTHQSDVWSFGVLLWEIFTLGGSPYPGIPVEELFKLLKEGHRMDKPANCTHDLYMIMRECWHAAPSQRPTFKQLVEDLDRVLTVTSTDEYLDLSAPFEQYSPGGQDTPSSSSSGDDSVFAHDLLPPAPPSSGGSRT
Chain of human KLB & human FGFR4 on L6 cells (human) (Q86Z14 whole entry, chain 1 of 2): as the sequence (Q86Z14 whole entry, chain 1 of 2) above
Chain of human KLB & human FGFR4 on L6 cells (human) (P22455 22-802, chain 2 of 2, further chain): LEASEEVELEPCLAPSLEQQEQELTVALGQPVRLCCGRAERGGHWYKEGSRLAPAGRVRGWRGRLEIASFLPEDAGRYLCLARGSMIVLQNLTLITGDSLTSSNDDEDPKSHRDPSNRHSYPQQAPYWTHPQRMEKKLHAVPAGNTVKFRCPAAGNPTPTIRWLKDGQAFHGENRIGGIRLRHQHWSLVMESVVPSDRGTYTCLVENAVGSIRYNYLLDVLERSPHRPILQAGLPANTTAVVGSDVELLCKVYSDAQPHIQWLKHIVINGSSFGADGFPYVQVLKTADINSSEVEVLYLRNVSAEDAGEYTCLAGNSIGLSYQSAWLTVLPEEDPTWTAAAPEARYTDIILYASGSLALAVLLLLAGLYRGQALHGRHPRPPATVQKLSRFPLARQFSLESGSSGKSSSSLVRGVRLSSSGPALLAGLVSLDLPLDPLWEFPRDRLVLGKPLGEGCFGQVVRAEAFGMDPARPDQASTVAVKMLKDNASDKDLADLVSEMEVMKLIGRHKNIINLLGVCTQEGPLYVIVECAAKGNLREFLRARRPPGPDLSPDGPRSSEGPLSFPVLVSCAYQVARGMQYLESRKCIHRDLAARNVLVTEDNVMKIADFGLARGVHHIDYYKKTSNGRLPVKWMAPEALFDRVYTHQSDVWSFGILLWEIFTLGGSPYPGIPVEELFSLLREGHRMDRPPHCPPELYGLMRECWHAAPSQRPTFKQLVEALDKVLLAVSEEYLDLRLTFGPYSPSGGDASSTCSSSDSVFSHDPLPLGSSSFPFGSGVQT

AKR001 (ligand)
Activation fold, pERK/total ERK in L6-hKLB&hFGFR3c cells [1]: 10.2 fold
Activation fold, pERK/total ERK in L6-hKLB&hFGFR4 cells [2]: 2.11 fold

FGF2 (Sino Biological, 10014-HNAE) (from UniProt P09038 143-288) (ligand)
Activation fold, SRE-Luc2P reporter in HEK293-hFGFR1c cells [3]: 11.6 fold

MK3655 (antibody)
Activation fold, GAL4-Elk1 luciferase reporter in CHOK1-hKLB&hFGFR1c cells [4]: 5.62 fold
Activation fold, SRE-Luc2P reporter in HEK293T-hKLB&hFGFR1c cells [4]: 1.65 fold
EC50 (nM), GAL4-Elk1 luciferase reporter in CHOK1-hKLB&hFGFR1c cells [4]: 0.64 nM
EC50 (nM), SRE-Luc2P reporter in HEK293T-hKLB&hFGFR1c cells [4]: 5.06 nM

— US20240270874A1
